test system: K4 kissing-loop RNA reporter; assay: apparent KD of K4 kissing-loop reporter; higher = weaker reporter binding; details: Eterna round: R107; input ligand: theophylline 20 uM
Method: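 RNA-MaP round R107: designed RNA switches with theophylline, tryptophan, arginine or FMN aptamers are transcribed on-chip within common flanks. They are titrated with a labelled K4 kissing-loop RNA reporter in RNA-MaP buffer (100 mM Tris pH 7.5, 80 mM KCl, 4 mM MgCl2), without ligand or with the indicated ligand. Median apparent KD per design.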
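Note: bound reporter read as fluorescence of individual clusters on recovered sequencing chips by microscopy, with normalized cluster intensities fitted with a binding model.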

Row | Sequence | apparent KD of K4 kissing-loop reporter [nM]
1 | AUAUAAGUCGGAGGAUAUCCAGUGAUGUUAUGUUGUGAUGUUUAGUGAUGUUAGGCAUCAGUGAAGGGAGAAGGCCGUAAGUGAU [APPLE] | 89.2
2 | AUGUCUAAUACGGCCGCCACUCGAGCAGUGAUGUUGCUCAGUAAUGGUCAUCGUCGUACAUGCCCGAGGACCGGGUAUUGAUUUG [Remain] | 145
3 | UGGAUAUAGUGAUGUUAUAUAGAGAUGGAUACCAGCUGAGAGAAUAGCCCUUGGCAGCCGAAAGAAGUAUCAUUAGAGAAGAAUG [ExTheophyl.Aj] | 271
4 | AACCACUCGUUACAUCACUAUCGAGUGGAACGAGGACCGGUACGGCCGCCACUCGAAUAGAUGCAGUGAUGUUGCAUCUUGGAAU [KL-SSTryp-A (BrourdMod)4 #dotplot2 strengthened] | 156
5 | AAAAGAAAGUCGGCCGCCACUCAACGCAGUGAUGUUGCAAGACAGAAGAGCAGUGAUGUUGCCCAGAGGACCGGGACACAAGGCC [Same State Typtophan B GF 3] | 401
6 | UGCUGUCAAUAAGAUACCAGUUGGACUGAGUGAUGUUCAUCCAUUAUAUCUAUUCUGCUUAACCCUUGGCAGCUUGAUGACGUUU [theeternabot_exclusion_KL_Theo_B_6] | 191
7 | UAUACUAGACAAGAGAGAAUUCUCUCAAGAGAGGAUAUCCGAAUUCGGAGAAGGCUCUCUAAGUGAUGUUUGGAAUAGUCUAGAA [AK5 SS FMN A] | 500
8 | ACGCUAGCUACCGAAAGGUAGCUAGCGAGUGAGGAUAUGUGGAAACACAGAAGGCACAGCACAGUGAUGUUGUGCGGCGAAAGCC | 522
9 | GUAUCGCUAGGAGGAUAUUUCAAAUAACCAAUAAAUGGUUAUACGGAGUGAUGUUCCGAUUUACGGAAAGAAGGCCUAGUGAUAC [FMN B 5] | 319
10 | AAGUAGUCCCUUGUUGUCAUCGAAGAUGAACGAGGACCGGUACGGCCGCCACUCGGAGUGAUGUUCCGAUGGCUGCAAAAUAAAA [MatMod 22 - Jieux - Exclusion - Tryptophan A] | 91.4
11 | GCCGUAGAUUGAAGGAGCGCUAGUAGUGAUGUUGCUUGCACUUCUUGUGUAAGAAGAACCUAGCAGGUAGGUCGCAAUCUACGGC | 703

same assay, conditions: Eterna round: R107; input ligand: tryptophan 2.4 mM

Row | Sequence | apparent KD of K4 kissing-loop reporter [nM]
12 | UGAUCACAGUGAUGUUGUGGCAAAAGUGAUACCAGCCGUGUACGAGGCCCUUGGCAGCACCAGGGCUGUACGUCGUUAGAUCCGG [theeternabot_exclusion_KL_Theo_A_33] | 169
13 | AUAUCGGUUGAGAGUGAUGUUCCUUGUGUUCGAGGACCGGUACGGCCGCCACUCGGGUAGAAAAUAAAAGAUGUGUUUGAUUUUU [BDazzled - #14 SS Tryptophan A] | 221
14 | GUAUCGCUAGGAGGAUAUUCCAUUUUACAUAGAAAUGGCUAUGCGGAGUGAUGUUCCGAUUUACGGGAAGAAGGCCUAGUGAUAC [FMN B 21] | 121
15 | UGCAGUGAUGUUGCUAUUUUUCUUGAUUAACGAGGACCGGUACGGCCGCCACUCGAUUUCUCUCUAGUCCAGUAUGUUGUUUGAU [whbob_EX_Tryp_A_t5] | 82.9
16 | UAUGUCAUUCUCGACGGAGUGAUGUUCCGACGAGGACCGGUACGGCCGCCACUCGGCAGAAUUGAGUCUGUGAUCCUAGAUCAAU [theeternabot_exclusion_KL_Trp_A_44] | 200
17 | CCGCUACCCUCAGGAUAUUAAGUAUUAGUGAUGUUAGUAAACCGAUGGCGAAAGCCAUCGGUAUGUUGAGAAGGGAGGGUAGCGG [whbob_SS_FMNB__2th198] | 923
18 | UACCUGCUGUCAGGAUAUGAGUGCAGUGAUGUUGCACUCAACGUAACCAUCUUGAAAUGCAAACACUCAGAAGGGACGCGCGAAG [Onaninso] | 102
19 | GGGUGGCAGGCGGCCGCCACUCUGAGCAGCCAGUGAGUGAUGUUCGUGGCGGAAGAAUGUUCGUAGAGGACCGGGUUUGUUGUUC [Same State Tryptophan B GF 22] | 337
20 | UUGUUUAACUGAAGGAGCGGCAAUUGAUACGUAGAUAUAGUGAUGUUAUAUAAGAUAGAGAGCCAGGUAGGUCGCAGAGGUGUUU [ExArgB.R] | 190
21 | UUUGGAAGCGGUGUUGAUUAGGGAGCGGAAGGAGCGCCGAUUAUGGCAGGUAGGUCGCCGGAAUGUAGUGAUGUUGCAUAGAGGG [ExArgA.W] | 83.9
22 | UCUGUUGUAUAUGAUACCAGCAGUGAGAGACAGGAAGUAUAGUGAUGUUAUAUGAGAGAAUGCCCUUGGCAGCGUGUGCGGGUGG [SSTheophylB.X] | 99.1
23 | GUACGCUCUCGAGUGAUGUUCGGUAAUCGCUAGGAUAUCGCUUUUGCGAGAAGGAGCGGAAUGAGGAAACUCGUUCUGAGUGUAC [FMN A 22] | 476
24 | AAGAAGAAUGGAAGGAGCGAGCAGAUAUAACCAGUGAUGUUGGAAAGCCUUAUUGCUUAAGCUCAGGUAGGUCGCCAAGAAAAGA [whbob_Ex_Arginine_B_2t151] | 212
25 | AGUCCACUCUAAAGAGUGGACCUAAGGGAUACCAGUGAUGUUGGUCACCCUUGGCAGCCCUCUGUCAUCGAUAAAGAUGGCAGAA | 108
26 | UACUUUAAUUUAUAACUAUCUUUAUUUUGUCAGGAUAUCGUAUUGUCGAGAAGGGACUCUCUCAAGUGAUGUUUGAGAAAUCGUU [JR_SSFMNA_Sub024] | 87.9
27 | AAGUGUUCUAGUGAUACCAGACAUUUCUAUUUUAUCUUUAUAGCUAAGUGAUGUUUAGCAGUCCCUUGGCAGCACUAUUUCACUA [JR_SSTheophyB_Sub017] | 147
28 | AAGGUGAUCCUCGAUACCAGCUCAAAAUGAGUGAUGUUCAUGAAAGCCUGGAAACAGGCGAGCCCUUGGCAGCGAGUUACAUCAA [KL-SSTheoB8] | 154
29 | AAGACUUGCAUCGAUACCAGCCCAGUGAUGUUGGGCUGCUCUCCAUGGGUGCCAGACACGGGCCCUUGGCAGCGAGGUAAGGCCC [Soveri] | 106
30 | AGACUUCACCGAAGGAGCGACGUGGCCUAGUGAUGUUAGGUACGAGAGAAAUCUCGUAUACGUCAGGUAGGUCGCGGUGAAGUCA [Omei KL Arginine B SS C v8] | 830
31 | AACUUAAUUUAUAAGCAGUGAUGUUGCUCACGAGGACCGGUACGGCCGCCACUCGAUCGGACUUAGGUCUUCAAUUAUUUCUUAA [JR_ExcTryptoA_Sub018] | 121
32 | AGUGAUAUAUGAGGAUAUGGGUUUGUUAAUGAGUUUGUUUUAGUGUUGUUUGGUUAGUGAUGUUAUUUAGAAGGCGUGAGUGAUG [vxxexmullin] | 72
33 | UACAGGGAUAGUGAUGUUAUCCCAUGUGAUACCAGUGUCAUCCAACACCCUUGGCAGCAUACGGGCAGUGAUGUUGUUCUUGGUA [#17 K4 Theophylline A Exclusion] | 84.3

Row | Sequence | apparent KD of K4 kissing-loop reporter [nM]
34 | UGUACCGAGUCAGGAUAUCAUAAUAAUCGAGUGAUGUUCGAAUAACGACUGACAAAGUCGGUCGAUUGAGAAGGGACUUGGUACU [FmnBS 7 #SwitchBubble #StaticStem] | 378
35 | UGUCGAGUGAUGUUCGAUGUGGUGCAUUCAGAGGAUAUAGGGUGGGCUAGAAGGCUGAAAAGUGCUUCGAGUGAUGUUCGAAGAU [Exclusion FMN A GF8] | 110
36 | GCGCGGCUCAGUGAUGUUGAGCCUCGGAAACGAGGACCGGUACGGCCGCCACUCGUCCGCGCAGCUGAGGCAAAAGCCUCGGCUA [Omei KL Tryp A SS B v2] | 273
37 | CAAAUAUGCGGUAGGUUCAAGCGCUGGGAAGGAGCGCAGAUGACUGCAGGUAGGUCGCCCAGUGAUGUUGGGCUUUCCACCUAUG [Esisusa] | 100
38 | AAAUACAUUUUAUUAUAUAACUUUUCAGAAGGAGCGUGGAAGUUCACAGGUAGGUCGCUGAAUAUUGGACUAGUGAUGUUAGUUA [JR_Nu_SSArginiA_Sub021] | 179
39 | GGAUCCACCAGUGAUGUUGGAGAAAACUCCGAGGAUAUGACGAAAGUCAGAAGGUGGUAGACUGGACAAAGUCCGGUCGGAUCCA [FmnA 24 #SwitchBubble #K4Early] | 101
40 | GUACCAGUGAUGUUGGUAGGCGAGCGGGAUACCAGCCAAGACUCAGGCCCUUGGCAGCCCACAUAUCCCACGUAGGUAGUAGCUC [Same State - Theophylline A (Freestyle 17)] | 92.9
41 | UGACUGGACUGAAGGAGCGCGAAAACUCCUAGUGAUGUUAGGAAAACGAGACAAAGUCUCGCGCAGGUAGGUCGCAGUCUAGUCU [ArgBS 20 #SwitchBubble #StaticStem] | 113
42 | UAAGAAUAAGUAGCAGUGAUGUUGCUACUACGAGGACCGGUACGGCCGCCACUCGAAUACGAGUGGAAGUAGCAACUACCACUCA [(H1)-(H2)-(Trp1)-(Trp2)-(T)'-(H)'-(T)''_Design7] | 135
43 | GCAUGAUAGUAAGGAUAUAGAUAAUCCUUAUAUAUAUCGAGUGAUGUUCGAUGUGCCAAGGUACAUCUAGAAGGUACUGUAAGGU [Same State FMN B GF 17] | 239
44 | AUAUAAGUCGGAGGAUAUCCAGUGAUGUUAUGUUGUGAUGUUUAGUGAUGUUAGGCAUCAGUGAAGGGAGAAGGCCGUAAGUGAU [APPLE] | 78.9
45 | AUGUCUAAUACGGCCGCCACUCGAGCAGUGAUGUUGCUCAGUAAUGGUCAUCGUCGUACAUGCCCGAGGACCGGGUAUUGAUUUG [Remain] | 175
46 | UGGAUAUAGUGAUGUUAUAUAGAGAUGGAUACCAGCUGAGAGAAUAGCCCUUGGCAGCCGAAAGAAGUAUCAUUAGAGAAGAAUG [ExTheophyl.Aj] | 172
47 | AACCACUCGUUACAUCACUAUCGAGUGGAACGAGGACCGGUACGGCCGCCACUCGAAUAGAUGCAGUGAUGUUGCAUCUUGGAAU [KL-SSTryp-A (BrourdMod)4 #dotplot2 strengthened] | 132
48 | AAAAGAAAGUCGGCCGCCACUCAACGCAGUGAUGUUGCAAGACAGAAGAGCAGUGAUGUUGCCCAGAGGACCGGGACACAAGGCC [Same State Typtophan B GF 3] | 309
49 | UGCUGUCAAUAAGAUACCAGUUGGACUGAGUGAUGUUCAUCCAUUAUAUCUAUUCUGCUUAACCCUUGGCAGCUUGAUGACGUUU [theeternabot_exclusion_KL_Theo_B_6] | 182
50 | UAUACUAGACAAGAGAGAAUUCUCUCAAGAGAGGAUAUCCGAAUUCGGAGAAGGCUCUCUAAGUGAUGUUUGGAAUAGUCUAGAA [AK5 SS FMN A] | 500
51 | ACGCUAGCUACCGAAAGGUAGCUAGCGAGUGAGGAUAUGUGGAAACACAGAAGGCACAGCACAGUGAUGUUGUGCGGCGAAAGCC | 729
52 | GUAUCGCUAGGAGGAUAUUUCAAAUAACCAAUAAAUGGUUAUACGGAGUGAUGUUCCGAUUUACGGAAAGAAGGCCUAGUGAUAC [FMN B 5] | 290
53 | AAGUAGUCCCUUGUUGUCAUCGAAGAUGAACGAGGACCGGUACGGCCGCCACUCGGAGUGAUGUUCCGAUGGCUGCAAAAUAAAA [MatMod 22 - Jieux - Exclusion - Tryptophan A] | 101
54 | GCCGUAGAUUGAAGGAGCGCUAGUAGUGAUGUUGCUUGCACUUCUUGUGUAAGAAGAACCUAGCAGGUAGGUCGCAAUCUACGGC | 499

Source: the supplement of paper PMC9170038
